The target of experiment [1] is T1, human Dendritic Cell-Specific ICAM-3-Grabbing Non-Integrin (DC-SIGN) on hDC-SIGN^+/SIGN-R1^-/- murine bone … (human, UniProt Q9NNX6 1-404).
T1 construct: whole, on cells; also called hCD209
T1 sequence (looked up): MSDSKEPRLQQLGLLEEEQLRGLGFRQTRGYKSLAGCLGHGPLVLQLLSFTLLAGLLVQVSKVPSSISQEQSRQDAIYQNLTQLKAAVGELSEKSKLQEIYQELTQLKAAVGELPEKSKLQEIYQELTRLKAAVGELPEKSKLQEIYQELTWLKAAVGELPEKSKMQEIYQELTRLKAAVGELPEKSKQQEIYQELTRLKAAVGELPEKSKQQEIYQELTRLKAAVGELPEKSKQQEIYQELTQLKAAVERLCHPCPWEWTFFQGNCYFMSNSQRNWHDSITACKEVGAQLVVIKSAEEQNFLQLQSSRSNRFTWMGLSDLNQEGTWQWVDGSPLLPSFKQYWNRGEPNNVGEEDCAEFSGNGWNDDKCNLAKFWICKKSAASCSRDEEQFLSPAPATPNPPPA
Description: flow cytometry on hDC-SIGN^+/SIGN-R1^-/- BMDMs, Fc gamma receptors blocked, detection with anti-hIgG Fc antibody. The protocol: Both IVIG and sialylated IgG Fc require the murine C-type lectin Specific ICAM3-Grabbing Non-Integrin Related-1 (SIGN-R1) to mediate anti-inflammatory activity in vivo. This requirement can be circumvented by introduction of SIGN-R1 human orthologue, Dendritic Cell-Specific ICAM-3-Grabbing Non-Integrin (DC-SIGN). Therefore, the ability of both F241A/B4ST6 Fc and Fc^Abdeg to bind DC-SIGN was examined via a cell-binding assay. […] Cells were cultured overnight in high glucose DMEM medium supplemented with 1× antibiotic-antimycotic and 1×FBS at 37° C. and 5% CO₂. The next day, supernatants were discarded and cells were detached with enzyme-free dissociation buffer. Suspended cells were collected and centrifuged for 10 minutes at 400 rpm. The pellet was resuspended and washed in binding buffer (1×TBS, […], 2.5% FBS and 0.05% sodium azide). Fc receptors were blocked by adding anti-mouse CD16/32 antibody clone 93. After blocking, cells were washed in binding buffer, after which 100 μg/mL of Fc^Abdeg and F241A/B4ST6 Fc were added to the cells, which were then incubated for 1 hour on ice. […] BMDMs were analyzed by flow cytometry to detect surface-bound IgG. No bound IgG were detected on the SIGN-R1^{-/-} BMDMs incubated with F241A/B4ST6 Fc or Fc^Abdeg (FIG. 9G). However, IgG was detected on hDC-SIGN⁺/SIGN-R1^{-/-} BMDMs treated with F241A/B4ST6 Fc, but not with Fc^Abdeg (FIG. 9G).

Experiment [2] addresses T2, human FcRn (human, UniProt P55899 24-297; P61769 21-119, limits assumed).
T2 construct: also called hFcRn
Kind of experiment: SPR; Fc loaded on anti-human Fc biosensors, human FcRn in solution. On the procedure:
(§1) Dissociation constants (KDs) are plotted as μM (solid bars) and association constants (KAs) are plotted as Ms⁻¹ (hatched bars). (FIG. 9E and FIG. 9F) Female WT C57BL/6 (FIG. 9E) and humanized homozygous FcRn (Tg32) mice (FIG. 9F) were administered one dose of 50 mg/kg or 100 mg/kg of F241A/B4ST6 Fc or 10 mg/kg of Fc^Abdeg and serum mouse IgG was measured via ELISA out to day 7 post-dose. (FIG. 9G) SIGN-R1^{-/-} and hDC-SIGN⁺ murine bone marrow-derived macrophages (BMDMs) had their Fcγ receptors blocked then were incubated with PBS, F241A/B4ST6 Fc, or Fc^Abdeg and binding was detected by FACS using an anti-human IgG Fc antibody. […] (FIG. 911-9J) Female WT C57BL/6 mice (n=5 per group) and female and male SIGN-R1^{-/-} mice (n=5 per group) were administered arthritogenic K/BxN serum alongside PBS, 1 g/kg IVIG, 50 mg/kg F241A/B4ST6 Fc, or 10 mg/kg Fc^Abdeg in a preventative manner, and joint swelling was clinically scored for 10 days. […] Statistical significance was assessed using an ordinary one-way ANOVA with Tukey's multiple comparisons.
(§2) At the outset, the interactions between WT Fc, F241A/B4ST6 Fc, and Fc^Abdeg were tested with mouse and human FcRn using surface plasmon resonance (SPR). […] C57BL/6 and hFcRn (Tg32) mice were given a single intravenous injection of F241A/B4ST6 Fc or Fc^Abdeg and, following dosing, serum mIgG was determined via ELISA.

For experiment [3], the target named is T2, human FcRn. Description: SPR, Fc loaded on anti-human Fc biosensors. On the procedure:
as §1, §2

Experiment [4] has as its target T3, mouse FcRn (mouse, UniProt Q61559 22-297; P01887 21-119, limits assumed).
T3 construct: also called mFcRn; murine FcRn
T3 sequence (looked up) 1: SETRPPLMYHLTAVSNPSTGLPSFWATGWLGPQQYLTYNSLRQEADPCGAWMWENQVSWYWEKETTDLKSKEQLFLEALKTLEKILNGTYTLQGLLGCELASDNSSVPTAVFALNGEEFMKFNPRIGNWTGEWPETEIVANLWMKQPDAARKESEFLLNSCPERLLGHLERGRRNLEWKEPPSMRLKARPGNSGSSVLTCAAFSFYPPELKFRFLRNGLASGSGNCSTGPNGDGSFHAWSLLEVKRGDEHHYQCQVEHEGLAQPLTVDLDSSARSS
T3 sequence (looked up) 2: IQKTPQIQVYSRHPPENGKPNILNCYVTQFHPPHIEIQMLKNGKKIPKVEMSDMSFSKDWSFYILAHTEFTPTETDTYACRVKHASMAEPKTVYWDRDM
Description: SPR, Fc loaded on anti-human Fc biosensors. On the procedure: as §1, §2

For experiment [5], the target named is T3, mouse FcRn. Description: not stated in the sentence (apparently the SPR of Example 7).
Experiment [6] deals with T3, mouse FcRn. Description: SPR; Fc loaded on anti-human Fc biosensors, mouse FcRn in solution. On the procedure:
as §1, §2

T2 sequence (P55899 24-297 limits assumed, chain 1 of 2): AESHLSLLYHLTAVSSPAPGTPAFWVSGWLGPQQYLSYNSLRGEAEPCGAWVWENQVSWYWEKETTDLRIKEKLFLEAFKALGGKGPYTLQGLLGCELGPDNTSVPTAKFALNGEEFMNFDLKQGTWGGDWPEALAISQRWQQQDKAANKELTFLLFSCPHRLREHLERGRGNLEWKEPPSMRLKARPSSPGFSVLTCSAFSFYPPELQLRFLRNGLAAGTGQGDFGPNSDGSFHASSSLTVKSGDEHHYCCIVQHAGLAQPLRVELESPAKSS
T2 sequence (P61769 21-119 limits assumed, chain 2 of 2): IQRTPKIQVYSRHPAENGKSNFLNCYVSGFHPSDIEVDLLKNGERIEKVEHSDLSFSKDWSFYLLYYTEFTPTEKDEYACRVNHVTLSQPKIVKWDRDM

B1: Fc^Abdeg polypeptide (efgartigimod), human IgG1 Fc with M252Y/S254T/T256E/H433K/N434F (other)
chain: DKTHTCPPCPAPELLGGPSVFLFPPKPKDTLYITREPEVTCVVVDVSHEDPEVKFNWYVDGVEVHNAKTKPREEQYNSTYRVVSVLTVLHQDWLNGKEYKCKVSNKALPAPIEKTISKAKGQPREPQVYTLPPSRDELTKNQVSLTCLVKGFYPSDIAVEWESNGQPENNYKTTPPVLDSDGSFFLYSKLTVDKSRWQQGNVFSCSVMHEALKFHYTQKSLSLSPG
notes: also called EFG Fc
In the case of B1, in experiment [1], the binding result is recorded as “no binding (tested: 100 µg/mL)”. For the same molecule, the Kd in experiment [2] turned out to be 5.2 nM; in experiment [6], 0.27 nM. For the same molecule, the “fold lower KD than F241A/B4ST6 Fc” value in experiment [3] was determined as 39 fold; in experiment [4] it was 267 fold. In addition, the “fold enhanced affinity compared to human FcRn” value in experiment [5] is 10 fold.

The values above are taken from patent US20260242432A1 (NUVIG THERAPEUTICS, published 2026).
